# In patent publication US20110098449A1:
# Molecular target: Human recombinant hepatocyte growth factor activator (HGFA) (human) (UniProt Q04756)
# Test: cell-based or functional assay
# UniProt Q04756, sequence (Q04756 373-655 limits assumed): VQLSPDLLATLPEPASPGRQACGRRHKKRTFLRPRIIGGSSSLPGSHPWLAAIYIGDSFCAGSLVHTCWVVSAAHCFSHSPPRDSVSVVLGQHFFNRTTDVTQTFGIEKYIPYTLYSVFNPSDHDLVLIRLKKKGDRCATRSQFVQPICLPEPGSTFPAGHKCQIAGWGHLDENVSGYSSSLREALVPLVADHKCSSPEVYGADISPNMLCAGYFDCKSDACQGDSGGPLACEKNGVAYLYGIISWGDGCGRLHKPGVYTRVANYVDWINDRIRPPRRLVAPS
substance,measurement,value
Soluble HAI-1B (hepatocyte growth factor activator inhibitor-1B) (from UniProt O43278 36-465),inhibition of HGFA-mediated 125I-proHGF conversion (SDS-PAGE),1 µM
